B1: HDV Ribozyme (parent)
chain: GGCCGGCAUGGUCCCAGCCUCCUCGCUGGCGCCGGCUGGGCAACAUUCCGAGGGGACCGUCCCCUCGGUAAUGGCGAAUGGGACCCA

Variants of: B1
Test: self-cleavage, relative activity (ratio to wild type); higher = more cleavage; co-transcriptional

| Variant | self-cleavage |
| --- | --- |
| GGCCGGCAUGGUCCCAGCCUCCUCGCUGGCGCCGGUUGGGCAACAUUCCGAGGGGACCGUCCCCUAGGUAAUGGCGAAUGGGACCCA | 0.712 |
| GGCCGGCAUGGUCCCAGCCUCCUCGCUGGCGCCGGUUGGGCAACAUUCCGAGGGGACCGUCCCCUUGGUAAUGGCGAAUGGGACCCA | 0.741 |
| GGCCGGCAUGGUCCCAGCCUCCUCGCUGGCGCCGGUUGGUCAACAUUCCGAGGGGACCGUCCCCUCGGUAAUGGCGAAUGGGACCCA | 0.602 |
| GGCCGGCAUGGUCCCAGCCUCCUCGCUGGCGCCGGUUGGACAACAUUCCGAGGGGACCGUCCCCUCGGUAAUGGCGAAUGGGACCCA | 0.831 |
| GGCCGGCAUGGUCCCAGCCUCCUCGCUGGCGCCGGUUGGGCAACAUUCCGAGGGGACCGUCCCCUCGGUAAUGGGGAAUGGGACCCA | 0.0959 |
| GGCCGGCAUGGUCCCAGCCUCCUCGCUGGCGCCGGUUGGGCAACAUUCCGAGGGGACCGUCCCCUCGGUAAUGGCGAAUGGGCCCCA | 0.185 |
| GGCCGGCAUGGUCCCAGCCUCCUCGCUGGCGCCGGUUGGGCAACAUUCCGAGGGGACCGUCCCCUCGGUAAUGGCGAAUGGGGCCCA | 0.56 |
| GGCCGGCAUGGUCCCAGCCUCCUCGCUGGCGCCGGUUGGGCAACAUUCCGAGGGGACCGUCCCCUCGGUAAUGGCGAAUGGGACCCA | 0.744 |
| GGCCGGCAUGGUCCCAGCCUCCUCGCUGGCGCCGGUUGGGCAACAUUCCGAGGGGACCGUCCCCUCGGUACUGGCGAAUGGGACCCA | 0.408 |
| GGCCGGCAUGGUCCCAGCCUCCUCGCUGGCGCCGGUUGGGCAACAUUCCGAGGGGACCGUCCCAUCGGUAAUGGCGAAUGGGACCCA | 0.482 |
| GGCCGGCAUGGUCCCAGCCUCCUCGCUGGCGCCGGUUGGGCAACAUUCCGAAGGGACCGUCCCCUCGGUAAUGGCGAAUGGGACCCA | 0.785 |
| GGCCGGCAUGGUCCCAGCCUCCUCGCUGGCGCCGGUUGGGCAACAUUCCGACGGGACCGUCCCCUCGGUAAUGGCGAAUGGGACCCA | 0.779 |
| GGCCGGCAUGGUCCCAGCCUCCUCGCUGGCGCCGGUUGGGCACCAUUCCGAGGGGACCGUCCCCUCGGUAAUGGCGAAUGGGACCCA | 0 |
| GGCCGGCAUGGUCCCAGCCUCCUCGCUGGCGCCGGUUGGGCAUCAUUCCGAGGGGACCGUCCCCUCGGUAAUGGCGAAUGGGACCCA | 0.095 |
| GGCCGGCAUGGUCCCAGCCUCCUCGCUGGCGCCGGUUGGGCAACAUUCCGAGGGGACCGUCCCCUCGGUAAUGGCGAAUGGGACCCC | 0.778 |
| GGCCGGCAUGGUCCCAGCCUCCUCGCUGGCGCCGGUUGGGCAACAUUCCGAGGGGACCGUCCCCUCGGUAAUGGCGAAUGGGACCCU | 0.769 |

| Variant | self-cleavage |
| --- | --- |
| GGCCGGCAUGGUCCCAGCCUCCUCGCUGGCGCCGGUUGGGCAACAUUCCGAGGGGACCGUUCCCUCGGUAAUGGCGAAUGGGACCCA | 0.726 |
| GGCCGGCAUGGUCCCAGCCUCCUCGCUGGCGCCGGUUGGGCAACAUUCCGAGGGGACCGUACCCUCGGUAAUGGCGAAUGGGACCCA | 0.831 |
| GGCCGGCAUGGUCCCAGCCUCCUCGCUGGCGCCGGUUGGGCAACAUUCCGAGGGGACCGUGCCCUCGGUAAUGGCGAAUGGGACCCA | 0.466 |
| GGCCGGCAUGGUCCCAGCCUCCUCGCUGGCGCCGGUUGGGCAACAUUCCGAGGGGACCGUCUCCUCGGUAAUGGCGAAUGGGACCCA | 0.911 |
| GGCCGGCAUGGUCCCAGCCUCCUCGCUGGCGCCGGUUGGGCAACAUUCCGAGGGGACCGUCGCCUCGGUAAUGGCGAAUGGGACCCA | 0.222 |
| GGCCGGCAUGGUCCCAGCCUCCUCGCUGGCGCCGGGUGGGCAACAUACCGAGGGGACCGUCCCCUCGGUAAUGGCGAAUGGGACCCA | 0.177 |
| GGCCGGCAUGGUCCCAGCCUCCUCGCUGGCGCCGGUUGGGCAACAUUCCGUGGGGACCGUCCCCUCGGUAAUGGCGAAUGGGACCCA | 0.743 |
| GGCCGGCAUGGUCCCAGCCUCCUCGCUGGCGCCGGUUGGGCAACAUUCCGCGGGGACCGUCCCCUCGGUAAUGGCGAAUGGGACCCA | 0.665 |
| GGCCGGCAUGGUCCCAGCCUCCUCGCUGGCGCCGGUUGGGCAACAUUCCGAGGGGAACGUCCCCUCGGUAAUGGCGAAUGGGACCCA | 0.816 |
| GGCCGGCAUGGUCCCAGCCUCCUCGCUGGCGCCGGUUGGGCAACAUUUCGAGGGGACCGUCCCCUCGGUAAUGGCGAAUGGGACCCA | 0.746 |
| GGCCGGCAUGGUCCCAGCCUCCUCGCUGGCGCCGGUUGGGCUACAUUCCGAGGGGACCGUCCCCUCGGUAAUGGCGAAUGGGACCCA | 0.208 |
| GGCCGGCAUGGUCCCAGCCUCCUCGCUGGCGCCGGGUGGGCAACAUUCCGAGGGGACCGCCCCCUCGGUAAUGGCGAAUGGGACCCA | 0.237 |
| GGCCGGCAUGGUCCCAGCCUCCUCGCUGGCGCCGGGUGGGCAACAUUCCGAGGGGACCGACCCCUCGGUAAUGGCGAAUGGGACCCA | 0.0405 |
| GGCCGGCAUGGUCCCAGCCUCCUCGCUGGCGCCGGUUGGGCAACAUUCCGAGGGGACCGUCCCCUCGGUAAUGGCGAUUGGGACCCA | 0.154 |
| GGCCGGCAUGGUCCCAGCCUCCUCGCUGGCGCCGGUUGGGCAACAUUCCGAGGGGACCGUCCCCUCGGUAAUGGCGACUGGGACCCA | 0.173 |
| GGCCGGCAUGGUCCCAGCCUCCUCGCUGGCGCCGGUUGGGCAACAUUCCGAGGGGACUGUCCCCUCGGUAAUGGCGAAUGGGACCCA | 0.866 |

— the RNAGym collection of RNA variant scans (doi:10.7554/elife.80360)
